The target of this assay is ovalbumin-hippuric acid conjugate (OVA-HA) (UniProt P01012). Kind of assay: indirect ELISA on hippuric acid antigen, purified soluble scFv-E tag at 10-fold dilution, rabbit anti-E tag and goat anti-rabbit IgG-HRP detection. For orientation: In an ELISA, binding on a coated surface is turned into a signal by an enzyme label.

From patent publication US20090227777A1 come the findings set out here.

Sequence of UniProt P01012 (P01012 2-386 limits assumed): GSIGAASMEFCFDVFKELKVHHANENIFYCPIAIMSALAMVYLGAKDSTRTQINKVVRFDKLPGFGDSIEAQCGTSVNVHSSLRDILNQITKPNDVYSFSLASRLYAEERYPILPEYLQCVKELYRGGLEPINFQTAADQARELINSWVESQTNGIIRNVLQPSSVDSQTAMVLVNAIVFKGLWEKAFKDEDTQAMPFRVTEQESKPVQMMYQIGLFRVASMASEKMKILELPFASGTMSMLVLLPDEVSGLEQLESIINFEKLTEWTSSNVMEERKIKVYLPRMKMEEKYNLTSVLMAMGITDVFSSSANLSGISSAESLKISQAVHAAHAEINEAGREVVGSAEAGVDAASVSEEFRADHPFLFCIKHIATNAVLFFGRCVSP

B1: soluble single chain variable fragment scFv-E tag derived from 4D31G111B7 (scFv)
scFv: AAQPAEVMLVESGASVKISCKASGYSFTGYYMHWVKQSHVKTLEWVGRITPYNGATNYNQNFKDKASLTVDKSSSTAYMEFHSLTSEDSAVYYCVRMYADVWGAGTSVTVSSVKTTPPSVYPLAPGGGGSGGGGSGGGGSEIVLTQSPSSLSASLGESVTLACRGASQDIGGRLNWLQQEADGTIKRLIYATSSLDSGVPKRFSGSRSGSDYSLTISSLESEDFVDYYCLQYDRSPYTFGGGTKLEIKRGDAAPTVAA
In the case of B1, the antibody titer turned out to be 0.516.
